Source: patent US20150216972A1 (SAMSUNG ELECTRONICS, published 2015)
Blank lines part the entries; values can stand above or below the binder they belong to.

Columns and labels:
[1] = target: T1, human c-Met/Fc fusion protein (R&D Systems) (human, UniProt P08581 25-932); assay: ELISA, human c-Met/Fc coated at 2 ug/mL, hybridoma culture supernatant
T1 construct: Bought reagent; also called human c-Met/Fc protein; not shown: Fc part of the bought fusion
Procedure: Human c-Met/Fc fusion protein was seeded in an amount of 50 μL (2 μg/mL)/well to microtiter plates and allowed to adhere to the surface of each well. The antibody that remained unbound was removed by washing.
The hybridoma cell culture obtained in Reference Example 1.1.2 was added in an amount of 50 μL to each well of the plates and incubated for 1 hour. The cells remaining unreacted were washed out with a sufficient amount of Tris-buffered saline and Tween 20 (TBST). Goat anti-mouse IgG-horseradish peroxidase (HRP) was added to the plates and incubated for 1 hour at room temperature. The plates were washed with a sufficient amount of TBST, followed by reacting the peroxidase with a substrate (OPD). Absorbance at 450 nm was measured on an ELISA reader.

[2] = target: T2, EGFR (R&D Systems) (UniProt P00533 25-645, limits assumed); assay: SPR, Biacore T100
T2 construct: also called epidermal growth factor receptor

T1 sequence (P08581 25-932 limits assumed): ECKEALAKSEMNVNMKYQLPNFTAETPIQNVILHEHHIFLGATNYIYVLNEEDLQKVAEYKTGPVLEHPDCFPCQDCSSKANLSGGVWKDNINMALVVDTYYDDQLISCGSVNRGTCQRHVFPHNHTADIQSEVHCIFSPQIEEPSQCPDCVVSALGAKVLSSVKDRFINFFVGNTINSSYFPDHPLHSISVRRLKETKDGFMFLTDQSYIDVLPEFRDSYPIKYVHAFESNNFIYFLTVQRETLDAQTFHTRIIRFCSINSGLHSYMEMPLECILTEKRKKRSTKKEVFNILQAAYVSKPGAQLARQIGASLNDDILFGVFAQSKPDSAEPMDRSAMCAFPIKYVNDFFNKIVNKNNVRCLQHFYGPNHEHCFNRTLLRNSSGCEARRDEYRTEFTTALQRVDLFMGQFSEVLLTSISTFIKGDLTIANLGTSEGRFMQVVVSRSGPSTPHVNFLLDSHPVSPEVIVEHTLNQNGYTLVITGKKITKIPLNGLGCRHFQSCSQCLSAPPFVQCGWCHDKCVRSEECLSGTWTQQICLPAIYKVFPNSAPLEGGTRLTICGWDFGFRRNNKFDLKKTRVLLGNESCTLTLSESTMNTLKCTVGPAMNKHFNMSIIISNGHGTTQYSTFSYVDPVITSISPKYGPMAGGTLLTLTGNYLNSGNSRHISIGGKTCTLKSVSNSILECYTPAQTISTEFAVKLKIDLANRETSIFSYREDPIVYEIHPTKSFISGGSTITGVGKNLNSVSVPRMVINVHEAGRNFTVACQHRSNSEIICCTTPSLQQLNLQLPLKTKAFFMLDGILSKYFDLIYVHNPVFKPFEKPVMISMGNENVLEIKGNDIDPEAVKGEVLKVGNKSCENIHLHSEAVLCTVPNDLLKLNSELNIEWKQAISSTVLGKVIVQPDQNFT

binding result [1]: binds
B1: AbF46, mouse monoclonal antibody to c-Met (antibody, V domains shown)
VH: EVKLVESGGGLVQPGGSLRLSCATSGFTFTDYYMSWVRQPPGKALEWLGFIRNKANGYTTEYSASVKGRFTISRDNSQSILYLQMDTLRAEDSATYYCARDNWFAYWGQGTLVTVSA
VL: DILMTQSPSSLTVSAGEKVTMSCKSSQSLLASGNQNNYLAWHQQKPGRSPKMLIIWASTRVSGVPDRFIGSGSGTDFTLTINSVQAEDLAVYYCQQSYSAPLTFGAGTKLELK
notes: Screened as hybridoma culture supernatant; also called monoclonal antibody of hybridoma KCLRF-BP-00220

Kd [2]: ~0.35 nM
B2: ME-19, bispecific anti-c-Met/anti-EGFR antibody (anti-c-Met antibody L3-1Y / anti-EGFR DARPin conjugate) (bispecific antibody, human IgG2, kappa)
heavy: EVQLVESGGGLVQPGGSLRLSCAASGFTFTDYYMSWVRQAPGKGLEWLGFIRNKANGYTTEYSASVKGRFTISRDNSKNTLYLQMNSLRAEDTAVYYCARDNWFAYWGQGTLVTVSSASTKGPSVFPLAPCSRSTSESTAALGCLVKDYFPEPVTVSWNSGALTSGVHTFPAVLQSSGLYSLSSVVTVPSSNFGTQTYTCNVDHKPSNTKVDKTVERKCCVECPPCPAPPVAGPSVFLFPPKPKDTLMISRTPEVTCVVVDVSHEDPEVQFNWYVDGVEVHNAKTKPREEQFNSTFRVVSVLTVVHQDWLNGKEYKCKVSNKGLPAPIEKTISKTKGQPREPQVYTLPPSREEMTKNQVSLTCLVKGFYPSDIAVEWESNGQPENNYKTTPPMLDSDGSFFLYSKLTVDKSRWQQGNVFSCSVMHEALHNHYTQKSLSLSPGKGGGGSGGGGSDLGKKLLEAARAGQDDEVRILMANGADVNADDTWGWTPLHLAAYQGHLEIVEVLLKNGADVNAYDYIGWTPLHLAADGHLEIVEVLLKNGADVNASDYIGDTPLHLAAHNGHLEIVEVLLKHGADVNAQDKFGKTAFDISIDNGNEDLAEILQ
light: DIQMTQSPSSLSASVGDRVTITCKSSQSLLASGNQNNYLAWYQQKPGKAPKMLIIWASTRVSGVPSRFSGSGSGTDFTLTISSLQPEDFATYYCQQSYSRPYTFGQGTKVEIKRTVAAPSVFIFPPSDEQLKSGTASVVCLLNNFYPREAKVQWKVDNALQSGNSQESVTEQDSKDSTYSLSSTLTLSKADYEKHKVYACEVTHQGLSSPVTKSFNRGEC
notes: also called c-Met/EGFR bsAb
